Data set [1] can be described thus: UGT enzyme reaction with quercetin (recombinant UGTs, HPLC). The class given is biochemical, Arabidopsis. Particulars: for Specific activity (nkat/mg protein) 3-O-glc: quercetin glucosylated at 3-OH; for Specific activity (nkat/mg protein) 3-O-glc / Specific activity (nkat/mg protein) 3′-O-glc / Specific activity (nkat/mg protein) 4′-O-glc / Specific activity (nkat/mg protein) 7-O-glc: 0.5 mM quercetin, 5 mM UDP-glucose, 30° C.; for Specific activity (nkat/mg protein) 3′-O-glc: quercetin glucosylated at 3′-OH; for Specific activity (nkat/mg protein) 4′-O-glc: quercetin glucosylated at 4′-OH; for Specific activity (nkat/mg protein) 7-O-glc: quercetin glucosylated at 7-OH. The method in brief:
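Recombinant Arabidopsis UGTs (2 μg) incubated with 0.5 mM quercetin and 5 mM UDP-glucose in 100 mM Tris-HCl pH 7.0 at 30 °C for 1 h. Quercetin glucosides separated from aglycone by reverse-phase C18 HPLC (acetonitrile gradient, 0.1% TFA), detected at 370 nm.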

The nature of data set [2]: Whole-cell biocatalyst assay, E. coli expressing UGT in culture medium. Format: cell-based. As to the method: FIG. 14 Whole-cell biocatalyst assay using UGT71C1. E. coli cells expressing recombinant were used in the biocatalyst assay. After incubation with 0.1 mM quercetin and 0.1 mM IPTG, cells were collected by centrifugation, extracted with 80% methanol and both the cell extracts (pellet) and culture medium (supernatant) were analysed using HPLC. (A) Changes in the combined amounts of aglycone/glucoside over a time-course of 0-48 h. (B) Changes in the level of different glucosides and aglycone in the culture medium over the same time-course.
Using the foundation established in the preceding example, we went on to investigate the potential of E. coli expressing plant UGTs as whole-cell biocatalysts to synthesise glucosides of quercetin. In the first instance, we used E. coli grown in 75 ml of standard culture medium. […] Table 2 describes results in which 7 different UGTs are expressed in E. coli and the identity and quantity of different glucosides recovered in the medium were analysed by HPLC. […] There was considerable variation in the level of different glucosides synthesised by the cells, although even under these non-optimised conditions, each of the four monoglucosides and two di-O-glucosides could be formed.

Where [3] appears, read: E. coli, 2x YT medium, 0.1 mM IPTG, 0.1 mM quercetin, 24 h.

B1: UGT71B1: Arabidopsis recombinant glycosyltransferase (protein, UniProt Q9LSY9 1-473, looked up)
UDP-glycosyltransferase 71B1: MKVELVFIPSPGVGHIRATTALAKLLVASDNRLSVTLIVIPSRVSDDASSSVYTNSEDRLRYILLPARDQTTDLVSYIDSQKPQVRAVVSKVAGDVSTRSDSRLAGIVVDMFCTSMIDIADEFNLSAYIFYTSNASYLGLQFHVQSLYDEKELDVSEFKDTEMKFDVPTLTQPFPAKCLPSVMLNKKWFPYVLGRARSFRATKGILVNSVADMEPQALSFFSGGNGNTNIPPVYAVGPIMDLESSGDEEKRKEILHWLKEQPTKSVVFLCFGSMGGFSEEQAREIAVALERSGHRFLWSLRRASPVGNKSNPPPGEFTNLEEILPKGFLDRTVEIGKIISWAPQVDVLNSPAIGAFVTHCGWNSILESLWFGVPMAAWPIYAEQQFNAFHMVDELGLAAEVKKEYRRDFLVEEPEIVTADEIERGIKCAMEQDSKMRKRVMEMKDKLHVALVDGGSSNCALKKFVQDVVDNVP
B1: in data set [1], the “Specific activity (nkat/mg protein) 3-O-glc” value came out at 1.85 nkat/mg protein; the “Specific activity (nkat/mg protein) 3′-O-glc” value is “— (Activity lower than 0.02 nkat/mg protein has been considered as trace activity and is not shown in the Table.)”; the “Specific activity (nkat/mg protein) 4′-O-glc” value is “— (Activity lower than 0.02 nkat/mg protein has been considered as trace activity and is not shown in the Table.)”; the “Specific activity (nkat/mg protein) 7-O-glc” value was “— (Activity lower than 0.02 nkat/mg protein has been considered as trace activity and is not shown in the Table.)”.

B2: UGT71D1: Arabidopsis recombinant glycosyltransferase (protein, UniProt O82383 1-467, looked up)
UDP-glycosyltransferase 71D1: MRNVELIFIPTPTVGHLVPFLEFARRLIEQDDRIRITILLMKLQGQSHLDTYVKSIASSQPFVRFIDVPELEEKPTLGSTQSVEAYVYDVIERNIPLVRNIVMDILTSLALDGVKVKGLVVDFFCLPMIDVAKDISLPFYVFLTTNSGFLAMMQYLADRHSRDTSVFVRNSEEMLSIPGFVNPVPANVLPSALFVEDGYDAYVKLAILFTKANGILVNSSFDIEPYSVNHFLQEQNYPSVYAVGPIFDLKAQPHPEQDLTRRDELMKWLDDQPEASVVFLCFGSMARLRGSLVKEIAHGLELCQYRFLWSLRKEEVTKDDLPEGFLDRVDGRGMICGWSPQVEILAHKAVGGFVSHCGWNSIVESLWFGVPIVTWPMYAEQQLNAFLMVKELKLAVELKLDYRVHSDEIVNANEIETAIRYVMDTDNNVVRKRVMDISQMIQRATKNGGSSFAAIEKFIYDVIGIKP
B2: in data set [1], the “Specific activity (nkat/mg protein) 3-O-glc” value came to 4.19 nkat/mg protein; the “Specific activity (nkat/mg protein) 3′-O-glc” value is “— (Activity lower than 0.02 nkat/mg protein has been considered as trace activity and is not shown in the Table.)”; the “Specific activity (nkat/mg protein) 4′-O-glc” value is “— (Activity lower than 0.02 nkat/mg protein has been considered as trace activity and is not shown in the Table.)”; the “Specific activity (nkat/mg protein) 7-O-glc” value is “— (Activity lower than 0.02 nkat/mg protein has been considered as trace activity and is not shown in the Table.)”.

B3: UGT73B5: Arabidopsis recombinant glycosyltransferase (protein, UniProt Q9ZQG4 1-484, looked up)
UDP-glycosyltransferase 73B5: MNREVSERIHILFFPFMAQGHMIPILDMAKLFSRRGAKSTLLTTPINAKIFEKPIEAFKNQNPDLEIGIKIFNFPCVELGLPEGCENADFINSYQKSDSGDLFLKFLFSTKYMKQQLESFIETTKPSALVADMFFPWATESAEKLGVPRLVFHGTSFFSLCCSYNMRIHKPHKKVATSSTPFVIPGLPGDIVITEDQANVAKEETPMGKFMKEVRESETNSFGVLVNSFYELESAYADFYRSFVAKRAWHIGPLSLSNRELGEKARRGKKANIDEQECLKWLDSKTPGSVVYLSFGSGTNFTNDQLLEIAFGLEGSGQSFIWVVRKNENQGDNEEWLPEGFKERTTGKGLIIPGWAPQVLILDHKAIGGFVTHCGWNSAIEGIAAGLPMVTWPMGAEQFYNEKLLTKVLRIGVNVGATELVKKGKLISRAQVEKAVREVIGGEKAEERRLWAKKLGEMAKAAVEEGGSSYNDVNKFMEELNGRK
For B3, in data set [1], the “Specific activity (nkat/mg protein) 3-O-glc” value is reported as 11.58 nkat/mg protein; the “Specific activity (nkat/mg protein) 3′-O-glc” value is “— (Activity lower than 0.02 nkat/mg protein has been considered as trace activity and is not shown in the Table.)”; the “Specific activity (nkat/mg protein) 4′-O-glc” value is “— (Activity lower than 0.02 nkat/mg protein has been considered as trace activity and is not shown in the Table.)”; the “Specific activity (nkat/mg protein) 7-O-glc” value was “— (Activity lower than 0.02 nkat/mg protein has been considered as trace activity and is not shown in the Table.)”.

B4: UGT88A1: Arabidopsis recombinant glycosyltransferase, FIG. 4 (protein, listed as Arabidopsis thaliana)
chain: MGEEAIVLYPAPPIGHLVSMVELGKTILSKNPSLSIHIILVPPPYQPESTATYISSVSSSFPSITFHHLPAVTPYSSSSTSRHHHESLLLEILCFSNPSVHRTLFSLSRNFNVRAMIIDFFCTAVLDITADFTFPVYFFYTSGAACLAFSFYLPTIDETTPGKNLKDIPTVHIPGVPPMKGSDMPKAVLERDDEVYDVFIMFGKQLSKSSGIIINTFDALENRAIKAITEELCFRNIYPIGPLIVNGRIEDRNDNKAVSCLNWLDSQPEKSVVFLCFGSLGLFSKEQVIEIAVGLEKSGQRFLWVVRNPPELEKTELDLKSLLPEGFLSRTEDKGMVVKSWAPQVPVLNHKAVGGFVTHCGWNSILEAVCAGVPMVAWPLYAEQRFNRVMIVDEIKIAISMNESETGFVSSTEVEKRVQEIIGECPVRERTMAMKNAAELALTETGSSHTALTTLLQSWSPK
For the molecule B4, in data set [1], the “Specific activity (nkat/mg protein) 3-O-glc” value stood at 0.41 nkat/mg protein, the “Specific activity (nkat/mg protein) 3′-O-glc” value was 0.19 nkat/mg protein, the “Specific activity (nkat/mg protein) 4′-O-glc” value was 0.76 nkat/mg protein and the “Specific activity (nkat/mg protein) 7-O-glc” value is 0.19 nkat/mg protein.

B5: UGT71C1: Arabidopsis recombinant glycosyltransferase (protein, UniProt O82381 1-481, looked up)
Flavonol …: MGKQEDAELVIIPFPFSGHILATIELAKRLISQDNPRIHTITILYWGLPFIPQADTIAFLRSLVKNEPRIRLVTLPEVQDPPPMELFVEFAESYILEYVKKMVPIIREALSTLLSSRDESGSVRVAGLVLDFFCVPMIDVGNEFNLPSYIFLTCSAGFLGMMKYLPERHREIKSEFNRSFNEELNLIPGYVNSVPTKVLPSGLFMKETYEPWVELAERFPEAKGILVNSYTALEPNGFKYFDRCPDNYPTIYPIGPILCSNDRPNLDSSERDRIITWLDDQPESSVVFLCFGSLKNLSATQINEIAQALEIVDCKFIWSFRTNPKEYASPYEALPHGFMDRVMDQGIVCGWAPQVEILAHKAVGGFVSHCGWNSILESLGFGVPIATWPMYAEQQLNAFTMVKELGLALEMRLDYVSEDGDIVKADEIAGTVRSLMDGVDVPKSKVKEIAEAGKEAVDGGSSFLAVKRFIGDLIDGVSISK
As for B5, in data set [2] (setting [3]), the “Culture medium (μg/ml in supernatant) 3′-O-glc” value was 8.00 µg/mL, the “Culture medium (μg/ml in supernatant) 7,3′-di-O-glc” value was 10.90 µg/mL and the “Culture medium (μg/ml in supernatant) 7-O-glc” value amounted to 2.12 µg/mL. Also, the “aglycone converted to glucosides” value in data set [2] (within 6 h, E. coli in 75 ml standard culture medium, no supplementary UDP-glucose) is roughly 50%. The “di-O-glucoside formation from quercetin” value in data set [1] (low substrate concentration, time parameter varied) is “significant levels of di-O-glucosides”. Also, in data set [1], the “Specific activity (nkat/mg protein) 3-O-glc” value is “— (Activity lower than 0.02 nkat/mg protein has been considered as trace activity and is not shown in the Table.)”; the “Specific activity (nkat/mg protein) 3′-O-glc” value was found to be 1.19 nkat/mg protein; the “Specific activity (nkat/mg protein) 4′-O-glc” value is “— (Activity lower than 0.02 nkat/mg protein has been considered as trace activity and is not shown in the Table.)”; the “Specific activity (nkat/mg protein) 7-O-glc” value worked out at 0.85 nkat/mg protein.

B6: UGT74F1: Arabidopsis recombinant glycosyltransferase (protein, UniProt O22820 1-449, looked up)
Flavonol …: MEKMRGHVLAVPFPSQGHITPIRQFCKRLHSKGFKTTHTLTTFIFNTIHLDPSSPISIATISDGYDQGGFSSAGSVPEYLQNFKTFGSKTVADIIRKHQSTDNPITCIVYDSFMPWALDLAMDFGLAAAPFFTQSCAVNYINYLSYINNGSLTLPIKDLPLLELQDLPTFVTPTGSHLAYFEMVLQQFTNFDKADFVLVNSFHDLDLHEEELLSKVCPVLTIGPTVPSMYLDQQIKSDNDYDLNLFDLKEAALCTDWLDKRPEGSVVYIAFGSMAKLSSEQMEEIASAISNFSYLWVVRASEESKLPPGFLETVDKDKSLVLKWSPQLQVLSNKAIGCFMTHCGWNSTMEGLSLGVPMVAMPQWTDQPMNAKYIQDVWKVGVRVKAEKESGICKREEIEFSIKEVMEGEKSKEMKENAGKWRDLAVKSLSEGGSTDININEFVSKIQIK
Regarding B6, in data set [2] (setting [3]), the “Culture medium (μg/ml in supernatant) 4′-O-glc” value was 0.19 µg/mL and the “Culture medium (μg/ml in supernatant) 7-O-glc” value was found to be 0.53 µg/mL.

The values are drawn from US7662583B2, “Bioreactor containing cells expressing glycosyltransferase nucleic acids isolatable from Arabidopsis” (The University of York, priority 2003, dated 2010).
